# According to the supplement of paper PMC10567573:
# B1: FAM164A (parent)
# chain: YDPDYIQCPYCQRRFNENAADRHI
# Variants of: B1
# Assay: protein stability index of a GFP-peptide fusion (GPS, HEK-293T) (PSI 1-6); higher = more stable
# Settings: c terminus: a fixed tail appended
# 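Further: lentivirally expressed fusions sorted by FACS into six bins by GFP to DsRed ratio, PSI derived from sequencing read proportions per bin multiplied by bin number.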
row,Variant,protein stability index
1,YDPDYIQCPYCQRRFNENANDRHI [A20N],4.49
2,YDPDYIQCPYCQRRFNENAPDRHI [A20P],3.52
3,YDPDYIQCPYCQRRFNENAHDRHI [A20H],3.95
4,YDPDYIQCPYCQRRFNENAGDRHI [A20G],3.85
5,YDPDYIQCPYCQRRFNENACDRHI [A20C],4.44
6,YDPDYIQCPYCQRRFNENASDRHI [A20S],4
7,YDPDYIQCPYCQRRFNENAMDRHI [A20M],4.12
8,YDPDYIQCPYCQRRFNENALDRHI [A20L],4.25
9,YDPDYIQCPYCQRRFNENAKDRHI [A20K],3.76
10,YDPDYIQCPYCQRRFNENADDRHI [A20D],4.25
11,YDPDYIQCPYCQRRFNENAEDRHI [A20E],4.34
12,YDPDYIQCPYCQRRFNENAWDRHI [A20W],3.52
13,YDPDYIQCPYCQRRFNENAIDRHI [A20I],4.37
14,YDPDYIQCPYCQRRFNENAACRHI [D21C],4.8
15,YDPDYIQCPYCQRRFNENAAHRHI [D21H],3.93
16,YDPDYIQCPYCQRRFNENAAIRHI [D21I],4.63
17,YDPDYIQCPYCQRRFNENAAVRHI [D21V],4.25
18,YDPDYIQCPYCQRRFNENAAWRHI [D21W],3.51
19,YDPDYIQCPYCQRRFNENAASRHI [D21S],4.57
20,YDPDYIQCPYCQRRFNENAALRHI [D21L],4.55
21,YDPDYIQCPYCQRRFNENAAARHI [D21A],4.33
22,YDPDYIQCPYCQRRFNENAAFRHI [D21F],3.72
23,YDPDYIQCPYCQRRFNENAAMRHI [D21M],3.94
24,YDPDYIQCPYCQRRFNENAAYRHI [D21Y],4.03

row,Variant,protein stability index
1,YDPDYIQCPYCQRRFNENAAQRHI [D21Q],4.71
2,YDPDYIQCPYCQRRFNENAAGRHI [D21G],3.9
3,YDPDYIQCPYCQRRFNENAAKRHI [D21K],4.46
4,YDPDYIQCPYCQRRFNENAANRHI [D21N],4.72
5,YDPDYIQCPYCQRRFNENAAERHI [D21E],4.42
6,YDPDYIQCPYCQRRFNENAAPRHI [D21P],3.92
7,YDPDYIQCPYCQRRFNENAATRHI [D21T],4.21
8,YDPDYIQCPYCQRRFNENAARRHI [D21R],4.07
9,YDPDYIQCPYCQRRFNENTADRHI [A19T],4.51
10,YDPDYIQCPYCQRRFNENSADRHI [A19S],4.59
11,YDPDYIQCPYCQRRFNENWADRHI [A19W],3.66
12,YDPDYIQCPYCQRRFNENVADRHI [A19V],3.82
13,YDPDYIQCPYCQRRFNENYADRHI [A19Y],3.58
14,YDPDYIQCPYCQRRFNENAADYHI [R22Y],3.81
15,YDPDYIQCPYCQRRFNENAADGHI [R22G],4.24
16,YDPDYIQCPYCQRRFNENAADMHI [R22M],4.48
17,YDPDYIQCPYCQRRFNENAADKHI [R22K],4.51
18,YDPDYIQCPYCQRRFNENAADPHI [R22P],4.29
19,YDPDYIQCPYCQRRFNENAADSHI [R22S],4.03
20,YDPDYIQCPYCQRRFNENAADTHI [R22T],4.02
21,YDPDYIQCPYCQRRFNENAADEHI [R22E],4.47
22,YDPDYIQCPYCQRRFNENAADQHI [R22Q],4.59
23,YDPDYIQCPYCQRRFNENAADFHI [R22F],3.26
24,YDPDYIQCPYCQRRFNENAADHHI [R22H],4.46

row,Variant,protein stability index
1,YDPDYIQCPYCQRRFNENAADDHI [R22D],4.57
2,YDPDYIQCPYCQRRFNENAADIHI [R22I],4.03
3,YDPDYIQCPYCQRRFNENAADWHI [R22W],3.15
4,YDPDYIQCPYCQRRFNENAADLHI [R22L],4.08
5,YDPDYIQCPYCQRRFNENAADVHI [R22V],4.17
6,YDPDYIQCPYCQRRFNENAADAHI [R22A],4.49
7,YDPDYIQCPYCQRRFNENAADCHI [R22C],4.43
8,YDPDYIQCPYCQRRFNENAADNHI [R22N],4.29
9,YDPDYIQCPYCQRRFNENAADRII [H23I],4.21
10,YDPDYIQCPYCQRRFNENAADRAI [H23A],4.4
11,YDPDYIQCPYCQRRFNENAADRRI [H23R],3.96
12,YDPDYIQCPYCQRRFNENAADRFI [H23F],3.3
13,YDPDYIQCPYCQRRFNENAADRDI [H23D],4.81
14,YDPDYIQCPYCQRRFNENAADRGI [H23G],4.05
15,YDPDYIQCPYCQRRFNENAADRVI [H23V],4.25
16,YDPDYIQCPYCQRRFNENAADRMI [H23M],4.4
17,YDPDYIQCPYCQRRFNENAADRLI [H23L],3.9
18,YDPDYIQCPYCQRRFNENAADRWI [H23W],3.63
19,YDPDYIQCPYCQRRFNENAADRNI [H23N],4.15
20,YDPDYIQCPYCQRRFNENAADRSI [H23S],3.67
21,YDPDYIQCPYCQRRFNENAADRKI [H23K],4.11
22,YDPDYIQCPYCQRRFNENAADRTI [H23T],3.65
23,YDPDYIQCPYCQRRFNENAADRQI [H23Q],4.22
24,YDPDYIQCPYCQRRFNENAADRPI [H23P],3.86

row,Variant,protein stability index
1,YDPDYIQCPYCQRRFNENAADREI [H23E],5.08
2,YDPDYIQCPYCQRRFNENAADRYI [H23Y],3.83
3,YDPDYIQCPYCQRRFNENAADRCI [H23C],4.54
4,YDPDYIQCPYCQRRFNENAADRHE [I24E],4.25
5,YDPDYIQCPYCQRRFNENAADRHS [I24S],4.56
6,YDPDYIQCPYCQRRFNENAADRHF [I24F],3.88
7,YDPDYIQCPYCQRRFNENAADRHR [I24R],3.9
8,YDPDYIQCPYCQRRFNENAADRHV [I24V],4.6
9,YDPDYIQCPYCQRRFNENAADRHW [I24W],2.89
10,YDPDYIQCPYCQRRFNENAADRHG [I24G],4.43
11,YDPDYIQCPYCQRRFNENAADRHN [I24N],4.47
12,YDPDYIQCPYCQRRFNENAADRHA [I24A],4.74
13,YDPDYIQCPYCQRRFNENAADRHD [I24D],4.92
14,YDPDYIQCPYCQRRFNENAADRHM [I24M],4.03
15,YDPDYIQCPYCQRRFNENAADRHK [I24K],4.29
16,YDPDYIQCPYCQRRFNENAADRHH [I24H],4.4
17,YDPDYIQCPYCQRRFNENAADRHY [I24Y],4.01
18,YDPDYIQCPYCQRRFNENAADRHL [I24L],3.88
19,YDPDYIQCPYCQRRFNENAADRHQ [I24Q],4.57
20,YDPDYIQCPYCQRRFNENAADRHT [I24T],4.18
21,YDPDYIQCPYCQRRFNENAADRHC [I24C],4.12
22,YDPDYIQCPYCQRRFNENAADRHP [I24P],4.25
